The data set in a line: amyloid nucleation score (Sup35N fusion, yeast selection) (log enrichment); library NNK3; higher = more nucleation; inactive = no reads after selection. The essentials:
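For the nucleation score, DiMSum gave the log enrichment of output over input reads, centred on the mode score of non-aggregating sequences. Psi-negative yeast expressing Sup35N fused to peptides of 20 random codons were induced with 100 μM copper sulfate for 24 hours and grown 7 days at 30°C on medium lacking adenine and uracil. Input and output plasmid inserts were Illumina-sequenced, and sequences with under 100 input reads were excluded.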

This note sets out measurements from the supplement of paper PMC12042874.

± gives the uncertainty stated by the source.

As to VWGLKFTRFVNTQLRRYPTL, the amyloid nucleation score result was “inactive”.
Take LPYTGIYSRFRDRLWCVLKT: the amyloid nucleation score entry is “inactive”.
IGMKFCAYVLLSYKAITMFG: the amyloid nucleation score result is “inactive”.
For the substance LNLHSSLGMFASLGDMIRVT, the amyloid nucleation score result is “inactive”.
For the substance VFLSCSCRWMVYGYNLTADC, the amyloid nucleation score entry was “inactive”.
For VQWCQDAFVIV, the amyloid nucleation score entry was “inactive”.
Turning to ADCPPRYRLPWGELGLRGEI, the amyloid nucleation score result was “inactive”.
Consider SDTRGVF, for which the amyloid nucleation score entry is “inactive”.
In the case of FYFDRTSVIMRLFSMWNNFG, the amyloid nucleation score result was “inactive”.
Turning to SDGSTRQSVRRVATPNVSRY, the amyloid nucleation score entry was “inactive”.
Consider KVLLWPSWFK, for which the amyloid nucleation score result is “inactive”.
As to VVRLWE, the amyloid nucleation score entry is “inactive”.
As for SIRYFRLSGMMSMYFFCFVV, the figure is 0.952 ± 0.14.
In the case of MIFRAQDSYGPLYT, the amyloid nucleation score entry is “inactive”.
In the case of IFIQLSDLMQSKVAHECGWC it was “inactive”.
VWRWGDLNSSGCCMWSRLNM: the amyloid nucleation score was found to be 1.99 ± 0.1.
In the case of WVKNLVFEGHVGA it was “inactive”; in that of YYVIDILVW, “inactive”.
In the case of SRKCWAHKSIDVEVATSSAK it was “inactive”.
With FFFFTLKTSVQADLHDMLSQ, the amyloid nucleation score was 0.792 ± 0.16.
Regarding FMFVVWGYINGFGYLTGVN, the amyloid nucleation score entry was “inactive”.
With KWTSCSYPH, the amyloid nucleation score result is “inactive”.
For FLPPTVINVVHAYRRFSSDR, the amyloid nucleation score was determined as 1.71 ± 0.098.
RITGSRFCHCDLVNCDATVC: the amyloid nucleation score result is “inactive”.
Consider WFLFRINQFKL, for which the amyloid nucleation score result is “inactive”.
TGMFL came in with an amyloid nucleation score of -0.004 ± 0.2.
Regarding HWFTLSKYGR, the amyloid nucleation score entry was “inactive”.
NENTNLIRLNGTDMRAYKLW: the amyloid nucleation score entry was “inactive”.
As to ILWDKRRSYYCIMGAIYIVR, the amyloid nucleation score result was “inactive”.
Regarding SLAGEHPRPIVG, the amyloid nucleation score result is “inactive”.
Regarding ITRTSDLFMLGSLINRGIAA, the amyloid nucleation score entry was “inactive”.
In the case of FGHIGQRRSFVIHLMHDGSP, the amyloid nucleation score entry was “inactive”.
As for RTYARYSMVGRLTMTSTRCE, the entry is “inactive”.
For IYDSRWTTNDSSCTTVFTEQ, the amyloid nucleation score result is “inactive”.
As for SNHITRFQLESQTIPIISFV, the amyloid nucleation score entry was “inactive”.
In turn, IVYGPCYTLYVRCSVFSLSK gave an amyloid nucleation score of 2.31 ± 0.063.
For TYMFMVAYNVSTRPRKLLNC, the amyloid nucleation score result is “inactive”.
In the case of GKYVVIDIGRSYFSKISGFR it was “inactive”.
For YANDANSCDWCICAFDRRSC, the amyloid nucleation score entry was “inactive”.
For the substance LVLYCF, the amyloid nucleation score entry was “inactive”.
For the substance KGEFIRPTSMVKYTDGLESG, the amyloid nucleation score entry is “inactive”.
FYVVNSWPRMMCGQARILCL: the amyloid nucleation score result is “inactive”.
Take QNTGLYVN: the amyloid nucleation score entry was “inactive”.
On to LLWCGFQDCEMKC, for which the amyloid nucleation score result is “inactive”.
On to VNRNVLTVSGCCLVYAPLC, for which the amyloid nucleation score stood at 2.26 ± 0.06.
As to ACSRGKCFTNRGSRWHLFVC, the amyloid nucleation score result was “inactive”.
In the case of LLYVKFIVPYTTM it was “inactive”; in that of YSGTKY, “inactive”; in that of IDHKCCNNTVS, “inactive”.
Turning to NLCRAI, the amyloid nucleation score came out at 0.256 ± 0.36.
FDGVGYATSIMEGNDSG: the amyloid nucleation score entry is “inactive”.
For YYSGVFPNVVGRS, the amyloid nucleation score entry was “inactive”.
With SVGRQSLYDL, the amyloid nucleation score was 0.285 ± 0.24.
SRHRNYHFCRILQCGFERSW displayed an amyloid nucleation score of -0.526 ± 0.93.
For the substance HSRWMAFPWMLGPLLLNRNL, the amyloid nucleation score result was “inactive”.
In the case of AYMVTKLVKR it was “inactive”; in that of SLVAFPLFAGCVIW, “inactive”; in that of VSSAMYYLFKGLAETLRYSS, “inactive”.
As for IIYRKVVKRCAWITDKEIPG, the entry is “inactive”; as for FYPTNGSGSRVLMHGNSMLC, “inactive”.
Regarding MTLHAILFLTRSLDALYLLT, the amyloid nucleation score entry was “inactive”.
Consider EMVITWCLRMLSQAMLGGYS, for which the amyloid nucleation score result was “inactive”.
As for QMRYLFACFYT, the entry is “inactive”; as for CNISERENALETHTMNKFVV, “inactive”.
Consider IRSNGTFTPWEPLSVIWCTK, for which the amyloid nucleation score result was “inactive”.
Turning to CESPLERSSAKYCRWGSCWG, the amyloid nucleation score entry is “inactive”.
As for AITHRIDS, the entry is “inactive”; as for FRLRGLKLTSNMDDWMLIKE, “inactive”.
In the case of SWCLERHGTRWSEFNYGPSS it was “inactive”; in that of RSYFC, “inactive”; in that of GSATCAS, “inactive”.
As for GLFYMMLLTRMGRYRGERNG, the figure is 1.18 ± 0.1; as for EAARTDLSILFISWMLLGKR, “inactive”; as for STQTGASRRENSPMGLGYNS, “inactive”.
Take GRSWVLV: the amyloid nucleation score result is “inactive”.
LVKIWDPSFNCFWMNGISNG: the amyloid nucleation score was determined as 1.01 ± 0.14.
In the case of LSSGNGSFVRYI it was “inactive”; in that of GSSRSGKGHCMLRVSVFYCV, “inactive”; in that of TSLWRLL, “inactive”.
Turning to RCHYSSWWESPCQSVM, the amyloid nucleation score result is “inactive”.
In the case of IDTAFRSYCYDFDLANDLMG it was “inactive”; in that of SARVRAVAMFPPPALT, “inactive”.
In the case of MRAGWLYFWASANGDNQWEA, the amyloid nucleation score result was “inactive”.
For FWPMFSVVVRRRKFHSTPVH, the amyloid nucleation score entry was “inactive”.
In the case of TKTFSDVMLYQCAARCKDLH, the amyloid nucleation score entry is “inactive”.
Consider IFGWLVDYLSFRVYKEDKGV, for which the amyloid nucleation score entry is “inactive”.
Substance IVSLALSFFLDHSQVFCLNS yielded an amyloid nucleation score of 1.36 ± 0.15.
As for FAVQCWKAGVAKNYGMHFVC, the amyloid nucleation score result is “inactive”.
YRIYFLRCPDLTRMFNFVEL: the amyloid nucleation score entry is “inactive”.
In the case of SNITAVYAVVTNIRWLYVRT it was “inactive”; in that of CNRWNHL, “inactive”.
Regarding FASIVFRCVLFTLFHPAVFR, the amyloid nucleation score result is “inactive”.
In the case of VLWDGF it was “inactive”; in that of PGYSCIRDIQITR, “inactive”; in that of LNSTTCLTAGWIGNAFIACN, “inactive”.
For QQMGYGKADSMFTSLVVYTM, the amyloid nucleation score entry is “inactive”.
As for DPYAGLDNLTRIWASKPSKY, the amyloid nucleation score result was “inactive”.
Consider RLLPFIGIYNFSKKWLSKAL, for which the amyloid nucleation score is -0.313 ± 0.75.
Consider SARRNSRTFLSLFVFHLFRA, for which the amyloid nucleation score result is “inactive”.
As for VALAVMQKLNMRYIYNPCFV, the amyloid nucleation score result was “inactive”.
For the substance GRSLCVVCSGLVWLCW, the amyloid nucleation score worked out at 2.19 ± 0.077.
For ISTDDKIIGST, the amyloid nucleation score entry is “inactive”.
With RLSLDRRNVRPDDMVHASGG, the amyloid nucleation score result was “inactive”.
Consider AMNFYI, for which the amyloid nucleation score entry is “inactive”.
Take YFLNSQVSNLLGS: the amyloid nucleation score result is “inactive”.
Take VQLLDLKILIIDSVDSKYVC: the amyloid nucleation score result was “inactive”.
In the case of VNIIF it was “inactive”; in that of GVGNKGSTKNLEQVTASVVV, “inactive”; in that of LRKRRGPK, “inactive”.
Turning to VETSCGRMHVLHLTGSGYSM, the amyloid nucleation score result was “inactive”.
With LLDVYLD, the amyloid nucleation score entry is “inactive”.
Regarding QAQIYWM, the amyloid nucleation score result was “inactive”.
For TVSGNKYISDRVQN, the amyloid nucleation score entry was “inactive”.
Turning to GVFDYTYGRLVAVFKGFGNY, the amyloid nucleation score result is “inactive”.
For SFLRIDVVWFSAFFGWSPFL, the amyloid nucleation score was 0.357 ± 0.54.
In turn, TNLACWVTFCPNCMMLDYLG showed an amyloid nucleation score of 2.21 ± 0.064.
VFSFDMLHRLG: the amyloid nucleation score turned out to be 1.53 ± 0.099.
In the case of FSFTRNERIDSLCSNAHSFT it was “inactive”; in that of NWAGLHIVKYRLPPHTHLWH, “inactive”.
As for IKVTIYPRLTRSNATFMPSM, the amyloid nucleation score result was “inactive”.
On to EKMDLPRAYGDIRTPKEVVR, for which the amyloid nucleation score was found to be 0.788 ± 0.12.
For YLFSSMLVILTCFRT, the amyloid nucleation score entry is “inactive”.
On to RMAYNFTKSR, for which the amyloid nucleation score result was “inactive”.
As for SMSAMYDSAIVV, the amyloid nucleation score result is “inactive”.
With VHFKCLRRCVGVIDRCINRH, the amyloid nucleation score entry was “inactive”.
Consider ACMNSSSRSVMLLMCYYFSN, for which the amyloid nucleation score result was “inactive”.
For the substance MLYRCLAKYRMWHYVDLSLL, the amyloid nucleation score entry is “inactive”.
As to MDRASVCLEGGMSMVWLRYV, the amyloid nucleation score result was “inactive”.
In the case of ATTGR, the amyloid nucleation score entry is “inactive”.
With NGYTNASS, the amyloid nucleation score result is “inactive”.
On to VISISRFDGWQRAHVKVRVS, for which the amyloid nucleation score entry is “inactive”.
As for DSLAVFNNVRRSMTVSRSAA, the figure is -0.89 ± 1.3.
